# Assay results from US20220220215A1 (CRESCENDO BIOLOGICS, published 2022).
# Substitutions are numbered along the chain they refer to. Names may count otherwise.
# B1: TPP-951: PDA2-6GS-172E1-13-6GS-HSA3-His (bispecific antibody)
# chain: EVQLVESGGGVVRPGGSLRLSCAASGFTFDDYAMSWVRQAPGKGLEWVSGITWNAGSTGYADSVKGRFTISRDNAKNSLYLQMNSLRAEDTALYYCVRDKYSYAWSYDDFDIWGQGTMVTVSSGGGGSGGGGSGGGGSGGGGSGGGGSGGGGSEVQLVESGGGVVQPGGSLRLSCAASGFTFSNYGMHWVRQAPGKGLEWVAVISNDGNTKTYADSVKGRFTISRDNSKNTLYLQMNSLRAEDTAVYYCAQDETTTVTASYYFDYWGQGTLVTVSSGGGGSGGGGSGGGGSGGGGSGGGGSGGGGSEVQLLESGGGLVKPGGSLRLSCAASGFTVSSYTMNWVRQAPGKGLEWVSSISSSGRYIYYADSVKGRFTISRDNAKNSLYLQMNSLRAEDTAVYYCARDPRMVGNPHEFDIWGQGTMVTVSSAAAHHHHHH
# B2: TPP-942: PDA-6GS-172E1-13-6GS-HSA2-2-His (bispecific antibody)
# chain: EVQLVESGGGLVQPGRSLRLSCAASGFTFDDYALHWVRQAPGKDLEWVSGISWNGGSYGYADSVKGRFTISRDNAKNSLYLQMNSLRAEDTALYYCVREKGPGLTGSTADYYGLDAWGQGTMVTVSSGGGGSGGGGSGGGGSGGGGSGGGGSGGGGSEVQLVESGGGVVQPGGSLRLSCAASGFTFSNYGMHWVRQAPGKGLEWVAVISNDGNTKTYADSVKGRFTISRDNSKNTLYLQMNSLRAEDTAVYYCAQDETTTVTASYYFDYWGQGTLVTVSSGGGGSGGGGSGGGGSGGGGSGGGGSGGGGSEVQLVESGGGLVKPGGSLRLSCAASGFTFSNYNMNWVRQAPGKGLEWVSSISSAGTHIYYADSVKGRFTISRDNAKNSLYLQMNSLRAEDTAVYYCARDPHSTGWYKDFDYWGQGTLVTVSSAAAHHHHHH
# B3: TPP-1052: PDA2-6GS-HSA3-6GS-CD137D-His (bispecific antibody)
# chain: EVQLVESGGGVVRPGGSLRLSCAASGFTFDDYAMSWVRQAPGKGLEWVSGITWNAGSTGYADSVKGRFTISRDNAKNSLYLQMNSLRAEDTALYYCVRDKYSYAWSYDDFDIWGQGTMVTVSSGGGGSGGGGSGGGGSGGGGSGGGGSGGGGSEVQLLESGGGLVKPGGSLRLSCAASGFTVSSYTMNWVRQAPGKGLEWVSSISSSGRYIYYADSVKGRFTISRDNAKNSLYLQMNSLRAEDTAVYYCARDPRMVGNPHEFDIWGQGTMVTVSSGGGGSGGGGSGGGGSGGGGSGGGGSGGGGSEVQLVESGGGVVQPGGSLRLSCAASGFTFSNYGMHWVRQAPGKGLEWVAVISNDGNTKTYADSVKGRFTISRDNSKNTLYLQMNSLRAEDTAVYYCAQDETTTVTASYYFDYWGQGTLVTVSSAAAHHHHHH
# B4: TPP-950: PDA2-6GS-172E1-13-6GS-HSA2-His (bispecific antibody)
# chain: EVQLVESGGGVVRPGGSLRLSCAASGFTFDDYAMSWVRQAPGKGLEWVSGITWNAGSTGYADSVKGRFTISRDNAKNSLYLQMNSLRAEDTALYYCVRDKYSYAWSYDDFDIWGQGTMVTVSSGGGGSGGGGSGGGGSGGGGSGGGGSGGGGSEVQLVESGGGVVQPGGSLRLSCAASGFTFSNYGMHWVRQAPGKGLEWVAVISNDGNTKTYADSVKGRFTISRDNSKNTLYLQMNSLRAEDTAVYYCAQDETTTVTASYYFDYWGQGTLVTVSSGGGGSGGGGSGGGGSGGGGSGGGGSGGGGSEVQLVESGGGLVKPGGSLRLSCAASGFTFSNYNMNWVRQAPGKGLEWVSSISSAGTHIYYADSVKGRFTISRDNAKNSLYLQMNSLRAEDTAVYYCARDPHSTGWYKDFDYWGQGTLVTVSSAAAHHHHHH
# B5: TPP-1294 PDBlocker1.92-6GS-CD137A-7-6GS-HSA3 (bispecific antibody)
# chain: EVQLVESGGGLVKPGGSLRLSCAASGFTFSDESMTWMRQAPGKGLEWVSYISSGGGVKFYADSVKGRFTISRDNAKNSLYLQMNSLRAEDTAVYYCAREAPLRLGESPHDAFDISGQGTMVTVSSGGGGSGGGGSGGGGSGGGGSGGGGSGGGGSEVQLVESGGGLVQPGGSLRLSCAASGFTLSNYWMNWVRQAPGKGLEWVANINQDGSERYYVDSVKGRFTISRDNAKNSLYLQMNSLRAEDTAVYYCARGGEGYGVDHYGLDVSGQGTTVTVSSGGGGSGGGGSGGGGSGGGGSGGGGSGGGGSEVQLLESGGGLVKPGGSLRLSCAASGFTVSSYTMNWVRQAPGKGLEWVSSISSSGRYIYYADSVKGRFTISRDNAKNSLYLQMNSLRAEDTAVYYCARDPRMVGNPHEFDIWGQGTMVTVSS
# B6: TPP-1023: CD137A-6GS-HSA3-6GS-PDA-His (bispecific antibody)
# chain: EVQLVESGGGLVQPGGSLRLSCAASGFTLSNYWMNWVRQAPGKGLEWVANINQDGSERYYVDSVKGRFTISRDNAKNSLYLQMNSLRAEDTAVYYCARGGEGYGVDHYGLDVSGQGTTVTVSSGGGGSGGGGSGGGGSGGGGSGGGGSGGGGSEVQLLESGGGLVKPGGSLRLSCAASGFTVSSYTMNWVRQAPGKGLEWVSSISSSGRYIYYADSVKGRFTISRDNAKNSLYLQMNSLRAEDTAVYYCARDPRMVGNPHEFDIWGQGTMVTVSSGGGGSGGGGSGGGGSGGGGSGGGGSGGGGSEVQLVESGGGLVQPGRSLRLSCAASGFTFDDYALHWVRQAPGKDLEWVSGISWNGGSYGYADSVKGRFTISRDNAKNSLYLQMNSLRAEDTALYYCVREKGPGLTGSTADYYGLDAWGQGTMVTVSSAAAHHHHHH
# B7: TPP-1291 PD138G7(G109D)-6GS-CD137A-6GS-HSA1943 (bispecific antibody)
# chain: EVQLVESGGGVVRPGGSLRLSCAASGFTFDDYAMSWVRQAPGKGLEWVSGITWNGGSTGYADSVKDRFTISRDNAKNSLYLQMNSLRAEDTALYYCVRDKYSYAWSYDDFDIWGQGTMVTVSSGGGGSGGGGSGGGGSGGGGSGGGGSGGGGSEVQLVESGGGLVQPGGSLRLSCASGFTLSNYWMNWVRQAPGKGLEWVANINQDGSERYYVDSVKGRFTISRDNAKNSLYLQMNSLRAEDTAVYYCARGGEGYGVDHYGLDVSGQGTTVTVSSGGGGSGGGGSGGGGSGGGGSGGGGSGGGGSEVQLLESGGGLVKPGGSLRLSCAASGFTVSSYTMNWVRQAPGKGLEWVSSISSSGRYIYYADSVKGRFTISRDNAKNSLYLQMNSLRAEDTAVYYCARDPRMVGNPHEFDIWGQGTMVTVSS
# B8: TPP-1025: CD137A-6GS-HSA3-2-6GS-PDA2-His (bispecific antibody)
# chain: EVQLVESGGGLVQPGGSLRLSCAASGFTLSNYWMNWVRQAPGKGLEWVANINQDGSERYYVDSVKGRFTISRDNAKNSLYLQMNSLRAEDTAVYYCARGGEGYGVDHYGLDVSGQGTTVTVSSGGGGSGGGGSGGGGSGGGGSGGGGSGGGGSEVQLLESGGGLVKPGGSLRLSCAASGFTVSSYTMNWVRQAPGKGLEWVSSISSSGRYIYYADSVKGRFTISRDNAKNSLYLQMNSLRAEDTAVYYCARDPRMVGNPHEFDIWGQGTMVTVSSGGGGSGGGGSGGGGSGGGGSGGGGSGGGGSEVQLVESGGGVVRPGGSLRLSCAASGFTFDDYAMSWVRQAPGKGLEWVSGITWNAGSTGYADSVKGRFTISRDNAKNSLYLQMNSLRAEDTALYYCVRDKYSYAWSYDDFDIWGQGTMVTVSSAAAHHHHHH
# B9: TPP-943: PDA-6GS-172E1-13-6GS-HSA2-His (bispecific antibody)
# chain: EVQLVESGGGLVQPGRSLRLSCAASGFTFDDYALHWVRQAPGKDLEWVSGISWNGGSYGYADSVKGRFTISRDNAKNSLYLQMNSLRAEDTALYYCVREKGPGLTGSTADYYGLDAWGQGTMVTVSSGGGGSGGGGSGGGGSGGGGSGGGGSGGGGSEVQLVESGGGVVQPGGSLRLSCAASGFTFSNYGMHWVRQAPGKGLEWVAVISNDGNTKTYADSVKGRFTISRDNSKNTLYLQMNSLRAEDTAVYYCAQDETTTVTASYYFDYWGQGTLVTVSSGGGGSGGGGSGGGGSGGGGSGGGGSGGGGSEVQLLESGGGLVKPGGSLRLSCAASGFTVSSYTMNWVRQAPGKGLEWVSSISSSGRYIYYADSVKGRFTISRDNAKNSLYLQMNSLRAEDTAVYYCARDPRMVGNPHEFDIWGQGTMVTVSSAAAHHHHHH
# B10: 003BB172-E01-5 (VHH)
# VHH: EVQLVESGGGLVQPGGSLRLSCAASGFTFSNYGMHWVRQAPGKRLEWVAVISNDGNTKTYADSVKGRFTISRDNSKNTLYLQMNSLRTEDTAVYYCAQDETTTVTASYYFDYWGQGTLVTVSS
# notes: Human VH single domain antibody, monovalent
# B11: 003BB172-E01-8 (VHH)
# VHH: B10 VHH with L11V, R44G
# notes: as for B10
# B12: 003BB172-E01-11 (VHH)
# VHH: B10 VHH with L11V, G16R, R44G
# notes: as for B10
# B13: 003BB172-E01-9 (VHH)
# VHH: B10 VHH with R44G, T88A
# notes: as for B10
# B14: 003BB172-E01-10 (VHH)
# VHH: B10 VHH with G16R, R44G
# notes: as for B10
# B15: 003BB172-E01-7 (VHH)
# VHH: B10 VHH with R44G
# notes: Human VH single domain antibody, monovalent; also called CD137C
# B16: 003BB172-E01-6 (VHH)
# VHH: B10 VHH with R44G, T78M
# notes: Human VH single domain antibody, monovalent; also called CD137B
# Target: human CD137 expressed on cells (Jurkat human CD137 NF-kB luciferase reporter cells; human CD8+ T cells) (human, UniProt Q07011 24-255)
# Assay: cell-based or functional assay
row,Jurkat-CD137/CHO-PD-1 Reporter Assay EC50,Binder
1,14.1 nM,B1
2,57.4 nM,B2
3,3.26 nM,B3
4,43 nM,B4
5,0.0323 nM,B5
6,0.437 nM,B6
7,0.0809 nM,B7
8,0.509 nM,B8
9,25.7 nM,B9

# Target: T1, Rhesus CD137-Fc tagged protein (rhesus, UniProt H9Z8K9 24-186)
# T1 construct: extracellular domain; The Octet paragraph gives no catalogue number; also called rhCD137-Fc
# Assay: BLI (Octet RED384), CD137-Fc on Protein G sensor, 1:1 model
# Method: Binding kinetics of purified monovalent VH molecules were measured on a ForteBio Octet RED 384 instrument. Human and Rhesus CD137-Fc tagged protein was diluted to 5 μg/ml in kinetics buffer (0.05% Tween, 1×PBS) and coupled to Protein G biosensors (ForteBio cat no. 18-5082) via the Fc tag. VH were serially diluted (typically 1:2 dilution series starting with 200 nM, VH at the highest concentration) and binding to the CD137-Fc-coupled Protein G biosensors measured. Binding kinetics were determined from the (blank subtracted) sensor gram trace using 1:1 binding models and ForteBio Octet Data Analysis 9.0 software. Example kinetic and binding affinity data obtained is shown Table 18 (monovalent VH).
Kd,koff,kon,Binder
11.5 nM,0.00164 s⁻¹,142000 M⁻¹ s⁻¹,B10
41.4 nM,0.00269 s⁻¹,65000 M⁻¹ s⁻¹,B11
33.1 nM,0.0024 s⁻¹,72500 M⁻¹ s⁻¹,B12
23 nM,0.00235 s⁻¹,102000 M⁻¹ s⁻¹,B13
36.9 nM,0.00249 s⁻¹,67400 M⁻¹ s⁻¹,B14
40.7 nM,0.00233 s⁻¹,57300 M⁻¹ s⁻¹,B15
39 nM,0.00287 s⁻¹,73600 M⁻¹ s⁻¹,B16

# Target: T2, human CD137 expressed on CHO cells (human, UniProt Q07011 18-255)
# T2 construct: also called CHO huCD137; CHO human CD137 cells
# Assay: FMAT/Mirrorball on CHO huCD137 cells
# Method: Binding of His-tagged molecules to CHO human CD137, CHO parent and CHO human PD1 cells was assessed using Fluorescence Microvolume Assay Technology (FMAT). All reagents were prepared in FMAT assay buffer (pH 7.4) containing PBS, 0.1% Bovine Serum Albumin, 0.05% Sodium Azide. […] Fluorescence emission was then measured on the TTP Mirrorball plate reader in the FL2 (502 nm-537 nm) and FL5 (677-800 nm) channels following excitation at 488 nm and 640 nm. Data was gated on FL5 perimeter and peak intensity and the FL2 median mean fluorescence intensity of the gated data used for determination of VH binding. Monovalent CD137 specific Humabody® VH, and trispecific molecules with a CD137 binding arm bound to CHO CD137 expressing cells. Trispecific Humabody® VH, with a PD1 binding arm bound to PD1 expressing cells.
row,EC50,Binder
1,1.29 nM,B10
2,1.08 nM,B11
3,1.21 nM,B12
4,0.849 nM,B13
5,1.22 nM,B14
6,1.28 nM,B15
7,1.08 nM,B16
